Data from US20240398906A1 (YEDA RESEARCH AND DEVELOPMENT, published 2024).
“And” between values parts separate entries of the source, which are not always exact repeats. Equal entries are not always repeated.

T1: recombinant catalytic domain of human LOX (169-417) (human, UniProt P28300 169-417)
T1 construct: also called LOX-catalytic domain; recombinant LOX
T1 sequence: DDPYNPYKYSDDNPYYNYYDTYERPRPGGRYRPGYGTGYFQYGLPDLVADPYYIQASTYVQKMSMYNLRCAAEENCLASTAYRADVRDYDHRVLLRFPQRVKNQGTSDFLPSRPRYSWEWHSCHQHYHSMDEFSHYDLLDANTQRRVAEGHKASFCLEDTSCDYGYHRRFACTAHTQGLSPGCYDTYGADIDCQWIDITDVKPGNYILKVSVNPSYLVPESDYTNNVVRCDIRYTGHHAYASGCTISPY


How the values were obtained:
[1] = target: T1, recombinant catalytic domain of human …; test: ELISA, plate coated with LOX catalytic domain, detection with anti-human peroxidase antibody
Method: (§1) ELISA binding assay: A ninety-six-well plate (Nunc) was coated with LOX-catalytic domain, HSP70 or BSA at 10 μg/ml. After blocking with 2% BSA in PBS, the plate was incubated with the antibodies for 1 h at 37° C. Bound antibodies were detected by peroxidase-conjugated antibody goat anti-human (Jackson ImmunoResearch). EC₅₀ was calculated with GraphPad Prism from […] curve fitting analysis.

recombinant HSP70 = target: T2, recombinant HSP70 (UniProt P0DMV8 1-641, limits assumed); test: ELISA, plate coated with recombinant HSP70, detection with anti-human peroxidase antibody
T2 construct: Purified on a HisTrap column; also called heat shock protein 70
T2 sequence (P0DMV8 whole entry): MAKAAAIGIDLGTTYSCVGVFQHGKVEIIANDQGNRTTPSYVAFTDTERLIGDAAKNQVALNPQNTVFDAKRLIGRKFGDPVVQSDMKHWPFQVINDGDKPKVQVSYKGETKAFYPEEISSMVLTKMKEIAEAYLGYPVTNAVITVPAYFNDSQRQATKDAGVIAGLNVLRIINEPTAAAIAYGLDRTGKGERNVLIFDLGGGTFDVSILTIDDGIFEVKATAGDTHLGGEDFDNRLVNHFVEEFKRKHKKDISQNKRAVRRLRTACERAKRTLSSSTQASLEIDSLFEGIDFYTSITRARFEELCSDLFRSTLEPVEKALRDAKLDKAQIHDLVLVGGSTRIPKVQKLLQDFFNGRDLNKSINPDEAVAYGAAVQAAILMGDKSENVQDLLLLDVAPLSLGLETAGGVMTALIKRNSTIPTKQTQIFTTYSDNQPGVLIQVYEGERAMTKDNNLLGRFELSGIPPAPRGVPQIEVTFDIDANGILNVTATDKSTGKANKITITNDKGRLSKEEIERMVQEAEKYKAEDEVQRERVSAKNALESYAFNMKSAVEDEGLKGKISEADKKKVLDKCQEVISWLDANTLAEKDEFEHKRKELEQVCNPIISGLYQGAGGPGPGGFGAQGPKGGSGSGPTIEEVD
Method: as §1

[2] = target: T1, recombinant catalytic domain of human …; test: dissociation constant against LOX; microscale thermophoresis according to paragraph 89
[3] = target: T1, recombinant catalytic domain of human …; test: binding affinity against LOX; ELISA according to paragraph 88

Row | EC50 [1] [nM] | EC50 (recombinant HSP70) [nM] | Kd [2] [nM] | EC50 [3] | Binder
1 | 43 | 41 | – | – | AS1 (glycosylated LOX-PP fused to human IgG1 Fc) (Fc fusion, N-glycosylated on N81, N97 and N144 (precursor numbering; positions 60, 76 and 123 of the piece). Disulfide-linked dimer through the Fc hinge., also called AS1 decoy; not shown: Human IgG1 Fc (hinge-CH2-CH3), its orientation relative to LOX-PP and any linker) APPAAGQQQPPREPPAAPGAWRQQIQWENNGQVFSLLSLGSQYQPQRRRDPGAAVPGAANASAQQPRTPILLIRDNRTAAARTRTAGSSGVTAGRPRPTARHWFQAGYSTSRAREAGASRAENQTAPGEVPALSNLRPPSRVDGMVG
2 | – | – | 32 | 40 nM and 43 nM | Fc-LPD (Fc fusion) APPAAGQQQPPREPPAAPGAWRQQIQWENNGQVFSLLSLGSQYQPQRRRDPGAAVPGAANASAQQPRTPILLIRDNRTAAARTRTAGSSGVTAGRPRPTARHWFQAGYSTSRAREAGASRAENQTAPGEVPALSNLRPPSRVDGMVG
